In assay [1] the target is T1, control peptide 1 (…) displayed by HLA-A2 on T2 cells (human).
T1 construct: whole, on cells; also called Ctrl.1
The assay is described as follows: flow cytometry on peptide-pulsed T2 cells, relative MFI (binding over peptide loading). As to the method:
(§1) TAP-deficient T2 cells were pulsed with HLA-A2-restricted peptides (MAGE-A4 or control peptides) and incubated with MAGE-A4 binders followed by fluorophore-labeled specific detection antibodies and analysis by flow cytometry.
(§2) Briefly, T-B hybrid T2 cells were incubated with serum-free RPMI1640 medium containing MAGE-A4 or control peptides. […] Peptide loading efficiency was verified by using the ratio between median fluorescent intensity (MFI) of HLA-A2-binding antibody BB7.2 on peptide loaded T2 cells and MFI of unloaded T2 cells (>1). T2 cells were incubated with each of the specific antibodies followed by fluorophore-labeled detection antibodies (anti-kappa light chain or anti-Flag). The cells were fixed and fluorescence was measured by flow cytometry.
(In flow cytometry, cells or beads pass a laser one at a time.)

The target in assay [2] is T2, control peptide 2 (…) displayed by HLA-A2 on T2 cells (human).
T2 construct: whole, on cells; also called Ctrl.2
Described as above. As to the method: as §1, §2

For assay [3], the target named is T3, control peptide 3 (…) displayed by HLA-A2 on T2 cells (human).
T3 construct: whole, on cells; also called Ctrl.3
The description is as above. As to the method: as §1, §2

The target in assay [4] is T4, HLA-A2/MAGE-A4 complex, recombinant (HLA-A*02:01 extracellular domain, human b2m, MAGE-A4 peptide 230-239 …) (human, UniProt P04439 25-299 at identity 0.94); P61769 21-119).
T4 construct: also called MAGE-A4 pMHC; MAGE-A4/HLA-A2 complex
The assay is described as follows: direct ELISA, plate coated with HLA-A2/MAGE-A4 complex, serial dilution of the antibody. How it is done: All available hits were evaluated for their ability to bind MAGE-A4/HLA-A2 complex and a control peptide/HLA-A2 complex in a direct binding ELISA assay. […] Briefly, 96 well ELISA plates were coated with purified human MAGE-A4/HLA-A2 complex or control HLA-A2 complex. Serial dilutions of antibody molecules were added to the plate and detected by an anti-kappa light chain-HRP (Invitrogen) or a purified rabbit anti-VHH (QVQ) followed by goat anti-rabbit IgG(H+L) HRP (Southern Biotech). […] 5B.

Assay [5] deals with T4, HLA-A2/MAGE-A4 complex, recombinant …. The assay is described as follows: SPR. A general note: In SPR one partner is held on a chip, and binding of the other changes the refractive index at the surface.

Experimental findings from patent US20240279344A1 (CDR LIFE, published 2024) are described below.

A word on the EC50 (read off the curve): it is the concentration needed to bring the measured effect to its halfway point.

B1: M0763 (Fab, V domains shown)
VH: QSVKESGGRLVTPGTPLTLTCTVSGFSLSNYAMSWVRQAPGKGLEYIGIVSSGGTTYYASWAKGRFTISKTSTTVDLKITSPTTEDTATYFCAKDLYYGPTTYSAFNLWGQGTLVTVSS
VL: SELVLTQPASVQVNLGQTVSLTCTADTLSRSYASWYQLKPGQAPVLLIYRDTSRPSGVPDRFSGSSSGNTATLTISGAQAGDEGDYVCATSDGSGSNFQLFGGGTQLTVTG
notes: also called M763; parental M0763 antibody
For B1, the binding result in assay [1], in assay [2] and in assay [3] was “no binding” in each case. Further, the “EC50 (read off the curve)” value in assay [4] is around 1 µg/mL.

B2: M1335 (antibody, V domains shown)
VH: EVQLLESGGGSVQPGGSLRLSCTVSGFSLSNYAMSWVRQAPGKGLEWIGIVSSGGTTYYADSVKGRFTISKDTSKNTVYLQMNSLRAEDTASYYCAKDLYYGPSTYFVANLWGQGTSVTVSS
VL: SYELTQPPSVSVSPGQTASITCTADTLSRSYASWYQQKPGQSPVLVIYRDTSRPSGIPERFSGSNSGNTATLTISGTQAMDEADYYCATRPSSGSNFQLFGGGTKLTVL
notes: Variant with the HCDR2 motif SWA replaced by DSV
B2: the binding result in assay [5] is reported as “binds”.

B3: M1342 (antibody, V domains shown)
VH: EVQLLESGGGSVQPGGSLRLSCTVSGFSLSNYAMSWVRQAPGKGLEWIGIVSSGGTTYYADSVKGRFTISKDTSKNTVYLQMNSLRAEDTASYYCAKDLYYGPNTDYSAANLWGQGTSVTVSS
VL: SYELTQPPSVSVSPGQTASITCTADTLSRSYASWYQQKPGQSPVLVIYRDTSRPSGIPERFSGSNSGNTATLTISGTQAMDEADYYCATRPSSGSNFQAFGGGTKLTVL
notes: as for B2
B3: the binding result in assay [5] was “binds”.
